Experimental data: the Human Domainome abundance scans (Beltran et al. 2025)
± gives the uncertainty stated by the source.

B1: E3 ubiquitin-protein ligase TRIM36, residues 208 to 252; numbered along this chain, Q9NQ86 (parent)
chain: KILMCPEHETERINMYCELCRRPVCHLCKLGGNHANHRVTTMSSA

Variants of: B1
Assay: abundance fitness (aPCA) (normalised: wild type 0, dead -1); higher = more abundant; growth selection in yeast, the domain comes from the species named
Settings: Homo sapiens

Variant | abundance fitness
P6V | -0.069 ± 0.07
P6G | -0.14 ± 0.046
P6W | -0.378 ± 0.078
M4Y | 0.031 ± 0.055
M4D | -0.189 ± 0.058
M4E | -0.173 ± 0.061
M4R | -0.165 ± 0.044
M4T | -0.072 ± 0.067
M4L | -0.187 ± 0.062
M4Q | -0.181 ± 0.059
M4I | -0.063 ± 0.081
M4F | 0.188 ± 0.12
M4K | -0.054 ± 0.057
R22W | -0.34 ± 0.079
R22M | -0.163 ± 0.086
R22N | -0.291 ± 0.16
R22T | -0.09 ± 0.1
R22D | -0.197 ± 0.11
R22I | -0.227 ± 0.11
L27A | 0.052 ± 0.05
L27I | -0.041 ± 0.064

Variant | abundance fitness
L27M | -0.092 ± 0.089
L27D | -0.202 ± 0.084
L27W | -0.223 ± 0.052
L27T | 0.095 ± 0.081
L27Y | -0.222 ± 0.16
L27R | 0.015 ± 0.044
L19E | 0.117 ± 0.057
L19G | 0.068 ± 0.047
L19R | 0.076 ± 0.049
L19F | -0.287 ± 0.18
L19I | 0.04 ± 0.08
L19W | -0.088 ± 0.056
T10A | -0.12 ± 0.053
T10M | -0.038 ± 0.069
T10F | -0.337 ± 0.11
T10R | -0.039 ± 0.049
T10N | -0.282 ± 0.17
T10D | -0.132 ± 0.087
T10G | -0.071 ± 0.045
I2R | -0.243 ± 0.055
I2D | 0.012 ± 0.077

Variant | abundance fitness
I2S | -0.19 ± 0.066
I2V | -0.157 ± 0.066
G31H | -0.08 ± 0.056
G31R | -0.048 ± 0.048
G31K | -0.091 ± 0.083
G31A | -0.034 ± 0.046
G31T | 0 ± 0.055
E11A | -0.376 ± 0.074
E11P | -0.854 ± 0.42
E11R | -0.602 ± 0.081
E11K | -0.259 ± 0.11
V24Q | -0.431 ± 0.08
V24C | -0.107 ± 0.11
V24P | -0.501 ± 0.064
V24S | -0.446 ± 0.059
N36I | -0.225 ± 0.066
N36M | -0.109 ± 0.068
N36K | -0.023 ± 0.08
N36Y | -0.147 ± 0.089
N36C | -0.017 ± 0.067
C5W | -1.41 ± 0.15

Variant | abundance fitness
C5I | -1.14 ± 0.11
C5V | -0.907 ± 0.077
C5T | -0.703 ± 0.062
C5Y | -1 ± 0.1
C5K | -0.688 ± 0.074
C5A | -0.82 ± 0.062
H26F | -0.307 ± 0.24
H26R | -0.05 ± 0.055
H26Y | 0.343 ± 0.12
H26C | 0.01 ± 0.065
H26G | 0.049 ± 0.058
H26D | 0.04 ± 0.085
T40D | 0.039 ± 0.074
T40W | -0.287 ± 0.06
T40I | -0.265 ± 0.08
T40V | -0.023 ± 0.059
T40S | -0.025 ± 0.051
T40A | -0.027 ± 0.064
A35Q | -0.05 ± 0.07
A35T | -0.068 ± 0.056
